Laboratory results taken from patent publication US20130195874A1 (ADRENOMED, published 2013).
Like-named read-outs stand apart in the source and are kept apart here. Values belong to the molecule of their own block, whether it stands above or below them.

T1: human recombinant adrenomedullin receptor (CRLR+RAMP3) (human)
T1 chain: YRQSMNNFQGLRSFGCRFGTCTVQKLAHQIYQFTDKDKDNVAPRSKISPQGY

B1: NT-H (antibody, V domains shown)
VH: QVQLQQSGAELMKPGASVKISCKATGYTFSRYWIEWVKQRPGHGLEWIGEILPGSGSTNYNEKFKGKATITADTSSNTAYMQLSSLTSEDSAVYYCTEGYEYDGFDYWGQGTTLTVSS
VL: DVLLSQTPLSLPVSLGDQATISCRSSQSIVYSNGNTYLEWYLQKPGQSPKLLIYRVSNRFSGVPDRFSGSGSGTDFTLKISRVEAEDLGVYYCFQGSHIPYTFGGGTKLEIK
notes: also called NT-H antibody; antibody NT-H
B2: mouse adrenomedullin (mADM 1-50) (peptide)
peptide: YRQSMNQGSRSNGCRFGTCTFQKLAHQIYQLTDKDKDGMAPRNKISPQGYNH
B3: human adrenomedullin (hADM 1-52) (peptide)
peptide: T1 chain

Tests used:
[1] = target: ADM (human or mouse not stated for this entry); experiment: cell-based or functional assay
[2] = target: B3; experiment: cell-based or functional assay
[3] = target: B3; experiment: SPR (Biacore 2000), antibody captured via anti-mouse Fc, Adrenomedullin in solution
Protocol: Reversible immobilization of the antibodies was performed using an anti-mouse Fc antibody covalently coupled in high density to a CM5 sensor surface according to the manufacturer's instructions (mouse antibody capture kit; GE Healthcare). (Lorenz et al.,” Functional Antibodies Targeting IsaA of Staphylococcus aureus Augment Host Immune Response and Open New Perspectives for Antibacterial Therapy”; Antimicrob Agents Chemother. 2011 January; 55(1): 165-173.)

[4] = target: B3; experiment: cell-based or functional assay
[5] = target: T1, human recombinant adrenomedullin …; experiment: cell-based or functional assay
[6] = target: T1, human recombinant adrenomedullin …; experiment: cell-based or functional assay

Maximal inhibition of ADM bioactivity (ADM-Bioassay) (%) [1]: 0%
Molecule: Non specific mouse IgG (antibody)

Molecule: B1
stability of hADM in human citrate plasma with NT-H against hADM alone [2]: 2.3 fold
Kd [3]: 5.9 nM
IC50 (read off the curve) [4]: ~2 µg/mL

Molecule: B2
EC50 (read off the curve) [5]: ~0.08 nM

Molecule: B3
EC50 (read off the curve) [6]: ~1 nM
